Data taken from article PMC7155059, “Kinetic characterisation of Erv1, a key component for protein import and folding in yeast mitochondria” (The Febs Journal, 2019).

Substrate: OC(CS)C(O)CS
Test: oxygen consumption, Clark-type electrode
Assay type: biochemical, Saccharomyces cerevisiae
Details: electron donor, co-substrate O2 (air, ~250 μM), 1 μM Erv1, SOD1 10 units/mL, 50 mM Tris/HCl, 150 mM NaCl, 1 mM EDTA, pH 7.4, 25 °C

B1: Erv1 (yeast Erv1) (Saccharomyces cerevisiae S288C) (protein)
chain: MKAIDKMTDNPPQEGLSGRKIIYDEDGKPCRSCNTLLDFQYVTGKISNGLKNLSSNGKLAGTGALTGEASELMPGSRTYRKVDPPDVEQLGRSSWTLLHSVAASYPAQPTDQQKGEMKQFLNIFSHIYPCNWCAKDFEKYIRENAPQVESREELGRWMCEAHNKVNKKLRKPKFDCNFWEKRWKDGWDE
notes: WT, ERV1 gene in pET-24a(+), E. coli Rosetta-gami 2, Ni-NTA then size exclusion
For B1, the Km was 1500 ± 100 µM and the kcat was 1.28 ± 0.03 s⁻¹.
